Results taken from paper PMC11623927, “Synthesis and biological assessment of chalcone and pyrazoline derivatives as novel inhibitor for ELF3-MED23 interaction” (eLife, 2024).
Each block holds one molecule with its values, some of them ahead of it. Ends that are not written are not given here.

What was measured:
[1] = target: T1, MED23 (mediator of RNA polymerase II transcription subunit 23) (Homo sapiens, UniProt Q9ULK4); experiment: cell-free fluorescence polarization displacement of FITC-ELF3_[…]-145 from (His)6-MED23_[…]-582; format: binding
T1 construct: (His)6-MED23_391-582; with ELF3 (FITC-labeled ELF3_129-145 peptide)

[2] = target: T2, (His)6-MED23_(391-582) protein (UniProt Q9ULK4 391-582); experiment: fluorescence polarisation; cell-free; different concentrations of (His)6-MED23(391-582) with 10 nM FITC-ELF3(129-145) in assay buffer; least-squares non-linear fit; n=3; settings: both partners purified
T2 construct: MED23 (mediator of RNA polymerase II transcription subunit 23), residues 391-582
T2 sequence (looked up): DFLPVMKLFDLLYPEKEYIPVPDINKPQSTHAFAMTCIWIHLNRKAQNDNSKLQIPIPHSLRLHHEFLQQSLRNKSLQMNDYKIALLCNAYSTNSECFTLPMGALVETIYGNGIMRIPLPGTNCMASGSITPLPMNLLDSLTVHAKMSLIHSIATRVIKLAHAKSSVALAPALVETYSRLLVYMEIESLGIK

Cluc-MED23_(391-582) = target: T3, Cluc-MED23_(391-582) (UniProt Q9ULK4 391-582); experiment: split reporter (BiFC, NanoBiT); split firefly luciferase complementation in HEK293 co-transfected with Nluc-ELF3 and Cluc-MED23(391-582); without compound 10; settings: partners not purified
T3 construct: MED23 residues 391-582; also called MED23_(391-582) fragment fused with Cluc; source: HEK293, transfected, in cells
T3 sequence (looked up): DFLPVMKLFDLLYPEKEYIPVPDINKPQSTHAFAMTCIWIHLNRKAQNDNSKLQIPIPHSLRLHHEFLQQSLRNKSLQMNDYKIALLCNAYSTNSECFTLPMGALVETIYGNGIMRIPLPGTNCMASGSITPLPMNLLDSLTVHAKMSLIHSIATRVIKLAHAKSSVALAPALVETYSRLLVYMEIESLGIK

[3] = target: T2, (His)6-MED23_(391-582) protein; experiment: fluorescence polarisation; cell-free displacement; varying concentrations of unlabeled ELF3(137-144) peptide added to 80 nM (His)6-MED23(391-582) and 10 nM FITC-ELF3(129-145); Ki from IC50 by the Cheng-Prusoff equation; n=3; settings: both partners purified
[4] = target: T4, (His)6-MED23_(391-582) protein (UniProt Q9ULK4 391-582); experiment: FP; competition with FITC-ELF3(129-145)
T4 chain: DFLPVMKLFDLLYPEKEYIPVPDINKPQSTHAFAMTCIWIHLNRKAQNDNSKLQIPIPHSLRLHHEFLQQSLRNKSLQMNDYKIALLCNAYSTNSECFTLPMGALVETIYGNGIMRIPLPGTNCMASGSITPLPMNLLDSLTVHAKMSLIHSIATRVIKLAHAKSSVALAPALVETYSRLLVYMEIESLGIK

- Ki [1]: 680 ± 80 nM
Molecule: COc1ccc(/C=C/C(=O)c2cc(OC)c(OC)c(OC)c2)cc1OCC=C(C)C [compound 10, (E)–3-(4-Methoxy-3-((3-methylbut-2-en-1-yl)oxy)phenyl)–1-(3,4,5-trimethoxyphenyl) prop-2-en-1-one]

- Kd [2]: 10.2 nM
Molecule: TSSSSDELSWIIELLEK (peptide, UniProt P78545 129-145, looked up, also: FITC label, position not given here, also called ELF3-FITC peptide (17 a.a.)) [fluorescein isothiocyanate (FITC)-labeled ELF3_(129-145) peptide]

- fold change of bioluminescence vs. control (Cluc-MED23_(391-582)): 32.7 fold
B1: Nluc-ELF3WT (natural protein, UniProt P78545 1-371, looked up)
chain: MAATCEISNIFSNYFSAMYSSEDSTLASVPPAATFGADDLVLTLSNPQMSLEGTEKASWLGEQPQFWSKTQVLDWISYQVEKNKYDASAIDFSRCDMDGATLCNCALEELRLVFGPLGDQLHAQLRDLTSSSSDELSWIIELLEKDGMAFQEALDPGPFDQGSPFAQELLDDGQQASPYHPGSCGAGAPSPGSSDVSTAGTGASRSSHSSDSGGSDVDLDPTDGKLFPSDGFRDCKKGDPKHGKRKRGRPRKLSKEYWDCLEGKKSKHAPRGTHLWEFIRDILIHPELNEGLMKWENRHEGVFKFLRSEAVAQLWGQKKKNSNMTYEKLSRAMRYYYKREILERVDGRRLVYKFGKNSSGWKEEEVLQSRN
notes: ELF3, full-length cDNA, wild type; source: HEK293, transfected, in cells

- Ki [3]: 4470 nM
- IC50 [4]: 8810 nM
B2: unlabeled ELF3_(137-144) peptide (peptide, UniProt P78545 137-144, looked up)
peptide: SWIIELLE
notes: ELF3 residues 137-144 (S137 to E144), within the TAD domain; Positive control of the FP displacement assay
